Source: US5861377A, “Antistasin type serine protease inhibitors” (Novartis AG, priority 1994, dated 1999)

Columns and labels:
Urokinase = Urokinase (Homo sapiens, UniProt P00749); assay: Inhibition of amidolytic activity of serine proteinases: urokinase; assay type: biochemical; settings: inhibitor 1.3 mM
Procedure: (§1) To determine the specificity of hirustasin, its effect on the amidolytic activity of various serine proteinases (see Tab. 3) is determined. Therefore, proteinases are incubated with the inhibitor (1.3 mM) for 15 and for 30 min, and the residual enzyme activities are measured after addition of a suitable substrate. Equilibrium dissociation constants (Ki) for the complexes of hirustasin with individual proteases are determined essentially as described by Bieth (Bull. Europ. Physopat. Resp. (1980), 16, 183-195). Briefly, increasing concentrations of the inhibitor are incubated with a constant concentration of the enzyme; the time necessary to reach equilibration of the enzyme-inhibitor complex is determined for each protease in preliminary experiments. Substrate is then added and the residual enzyme activity measured. Apparent Ki -values are calculated by fitting the steady state velocities to the equation for tight binding inhibitors (Morrison, Biochem. Biophys. Acta (1969), 185, 269-286) using non-linear regression analysis.

Plasma kallikrein = Plasma kallikrein (Homo sapiens, UniProt P03952); assay: Inhibition of amidolytic activity of serine proteinases: plasma kallikrein; assay type: biochemical; settings: inhibitor 1.3 mM
Procedure: as §1

Thrombin = biological target: T1, Thrombin (Homo sapiens, UniProt P00734); assay: Inhibition of amidolytic activity of serine proteinases: thrombin; assay type: biochemical; set-up: effect on proteinase activity: dose or concentration left out as unconfirmed
T1 construct: the other proteinases tested including human α-thrombin and factor Xa
Procedure: as §1, with “(1.3 mM)” left out

Factor Xa = Factor Xa (Homo sapiens, UniProt P00742); assay: Inhibition of amidolytic activity of serine proteinases: factor Xa; assay type: biochemical; set-up: effect on proteinase activity: dose or concentration left out as unconfirmed
Procedure: as §1, with “(1.3 mM)” left out

Pancreatic elastase = Pancreatic elastase (Sus scrofa, UniProt P00772); assay: Inhibition of amidolytic activity of serine proteinases: pancreatic elastase; assay type: biochemical; settings: porcine pancreatic elastase; inhibitor 1.3 mM
Procedure: as §1

Leukocyte elastase = biological target: T2, Leukocyte elastase (Homo sapiens, UniProt P08246); assay: Inhibition of amidolytic activity of serine proteinases: leukocyte elastase; assay type: biochemical; settings: inhibitor 1.3 mM
T2 sequence (P08246 30-267): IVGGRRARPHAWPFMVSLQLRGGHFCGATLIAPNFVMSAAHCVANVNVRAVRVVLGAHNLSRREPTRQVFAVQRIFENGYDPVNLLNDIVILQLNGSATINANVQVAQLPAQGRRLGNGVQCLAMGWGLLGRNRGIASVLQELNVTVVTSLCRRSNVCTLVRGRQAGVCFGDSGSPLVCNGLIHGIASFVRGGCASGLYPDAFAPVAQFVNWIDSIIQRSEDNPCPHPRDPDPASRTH
Procedure: as §1

Subtilisin = assay: Inhibition of amidolytic activity of serine proteinases: subtilisin; assay type: biochemical; settings: Bact. subt. subtilisin; inhibitor 1.3 mM
Procedure: as §1

Chymase = assay: Inhibition of amidolytic activity of serine proteinases: chymase; assay type: biochemical; settings: porcine chymase; inhibitor 1.3 mM
Procedure: as §1

prothrombin time = assay: In vitro blood coagulation: prothrombin time (Quick)
Procedure: (§2) To determine whether hirustasin inhibits the blood coagulation in vitro, its effect on the prothrombin time and the partial thromboplastin time is measured using an Amelung KC10 coagulometer (Lemgo, Germany) and the reagent sets from Behringwerke AG (Marburg, Germany) according to the guidelines of the manufacturers.

[1] = test system: partial thromboplastin time; assay: In vitro blood coagulation: partial thromboplastin time
Procedure: as §2

[2] = test system: blood coagulation cascade; assay: Blood coagulation cascade in vitro (general statement)
Procedure: as §2

trypsin = biological target: T3, trypsin (Bos taurus, UniProt P00760); assay: Inhibitory activity during purification: amidolytic activity of trypsin; assay type: biochemical; settings: trypsin inhibition; fraction of the isolation step
T3 sequence (P00760 24-246): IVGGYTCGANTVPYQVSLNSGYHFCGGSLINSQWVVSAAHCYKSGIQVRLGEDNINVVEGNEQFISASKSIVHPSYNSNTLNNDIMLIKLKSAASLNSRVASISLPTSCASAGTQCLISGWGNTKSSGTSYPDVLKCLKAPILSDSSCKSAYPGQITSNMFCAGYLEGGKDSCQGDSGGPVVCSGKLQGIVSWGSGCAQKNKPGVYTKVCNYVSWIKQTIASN
Procedure: During the purification procedure inhibitory activity is assayed by measuring the inhibition of the amidolytic activities of trypsin and chymotrypsin. Samples are incubated with trypsin (225 nM) in 50 mM Tris/HCl (pH 7.8), 0.1% (mass/vol) Triton X-100, for 12 min at 25° C. The assay is started by addition of the substrate benzoyl-L-argininep-nitroanilide (0.4 mM, final concentration). The released nitroaniline is monitored photometrically at 405 nm for 3.5 min using an UVIKON 930® photometer (Kontron; Eching, Germany).
(§3) One inhibition unit (IU) is defined as the amount of inhibitor which reduces the substrate hydrolysis by 1 mmol per min.

chymotrypsin = chymotrypsin (Bos taurus, UniProt P00766); assay: Inhibitory activity during purification: amidolytic activity of chymotrypsin; assay type: biochemical; settings: chymotrypsin inhibition; fraction of the isolation step
Text: as §3

Sequence of Factor Xa (P00742 235-488 limits assumed): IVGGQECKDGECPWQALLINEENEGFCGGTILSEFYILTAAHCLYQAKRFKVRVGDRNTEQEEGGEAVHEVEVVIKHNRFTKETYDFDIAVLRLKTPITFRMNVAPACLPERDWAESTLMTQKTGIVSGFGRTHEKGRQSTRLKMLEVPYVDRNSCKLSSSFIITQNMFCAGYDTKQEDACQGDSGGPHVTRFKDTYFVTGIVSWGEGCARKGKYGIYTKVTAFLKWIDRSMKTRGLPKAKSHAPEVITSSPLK
Sequence of Factor Xa (P00742 41-179 partner limits assumed): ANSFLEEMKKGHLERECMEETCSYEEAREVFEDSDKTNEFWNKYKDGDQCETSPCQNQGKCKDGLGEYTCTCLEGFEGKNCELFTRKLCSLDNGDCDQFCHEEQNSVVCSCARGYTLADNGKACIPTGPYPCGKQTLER
Sequence of Plasma kallikrein (P03952 391-638 limits assumed): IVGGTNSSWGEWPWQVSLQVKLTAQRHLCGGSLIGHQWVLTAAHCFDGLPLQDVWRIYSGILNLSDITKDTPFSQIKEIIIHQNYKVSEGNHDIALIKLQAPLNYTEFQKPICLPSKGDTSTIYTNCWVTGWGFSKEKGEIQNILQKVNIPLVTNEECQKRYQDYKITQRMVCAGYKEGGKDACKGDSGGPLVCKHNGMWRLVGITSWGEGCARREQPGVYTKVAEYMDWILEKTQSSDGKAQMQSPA
Sequence of Plasma kallikrein (P03952 20-390 partner limits assumed): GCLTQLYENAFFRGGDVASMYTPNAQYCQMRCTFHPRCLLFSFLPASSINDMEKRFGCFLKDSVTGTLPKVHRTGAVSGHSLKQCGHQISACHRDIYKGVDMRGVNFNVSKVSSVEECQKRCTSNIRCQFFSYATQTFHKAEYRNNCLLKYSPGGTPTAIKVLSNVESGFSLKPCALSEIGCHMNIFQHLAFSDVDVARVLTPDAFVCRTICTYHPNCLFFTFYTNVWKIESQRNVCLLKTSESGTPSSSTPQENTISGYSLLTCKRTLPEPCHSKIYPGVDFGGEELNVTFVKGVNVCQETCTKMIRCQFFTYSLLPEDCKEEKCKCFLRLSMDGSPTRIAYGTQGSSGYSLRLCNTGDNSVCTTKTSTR
Sequence of Pancreatic elastase (P00772 27-266): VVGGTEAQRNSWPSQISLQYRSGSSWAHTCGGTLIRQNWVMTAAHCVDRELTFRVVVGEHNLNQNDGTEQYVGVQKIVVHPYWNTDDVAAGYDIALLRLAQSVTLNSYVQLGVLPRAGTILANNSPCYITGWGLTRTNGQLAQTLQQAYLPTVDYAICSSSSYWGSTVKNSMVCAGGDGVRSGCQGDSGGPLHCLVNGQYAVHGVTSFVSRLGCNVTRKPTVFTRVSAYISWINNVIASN

Row | Substance | Ki (Urokinase) | Ki (Plasma kallikrein) | Ki (Thrombin; human thrombin, inhibitor 1.3 mM) | effect on proteinase activity (Thrombin; human α-thrombin, highest concentration used) | effect on proteinase activity (Factor Xa; factor Xa, highest concentration used) | Ki (Factor Xa; human factor Xa, inhibitor 1.3 mM) | effect on catalytic activity of isolated factor Xa (Factor Xa; isolated factor Xa) | Ki (Pancreatic elastase) | Ki (Leukocyte elastase) | Ki (Subtilisin) | Ki (Chymase) | effect on prothrombin time (prothrombin time; concentration of 1.3 mM) | Quick (prothrombin time; hirustasin 1.3 mM, buffer control 79%) | effect on partial thromboplastin time ([1]; concentration of 1.3 mM) | Partial Thromboplastin Time ([1]; hirustasin 1.3 mM, buffer control 47.3 s) | effect on blood coagulation cascade in vitro [2] | Trypsin SA [IU/mg] (specific activity) (trypsin) | Chymotrypsin SA [IU/mg] (specific activity) (chymotrypsin)
1 | Hirustasin: polypeptide of SEQ ID NO:1, antistasin-type serine proteinase inhibitor isolated from the medical leech Hirudo medicinalis (TQGNTCGGETCSAAQVCLKGKCVCNEVHCRIRCKYGLKKDENGCEYPCSCAKASQ) | > 1300 nM | > 1300 nM | > 1300 nM | no effect | no effect | > 1300 nM | neither affects | > 1300 nM | > 1300 nM | > 1300 nM | > 1300 nM | no significant effect | 80% | no significant effect | 47.9 s | neither affects | – | –
2 | Mono S ®: pooled Mono S fractions, the finally isolated hirustasin (TQGNTCGGETCSAAQVCLKGKCVCNEVHCRIRCKYGLKKDENGCEYPCSCAKASQ; UniProt P80302 1-55, looked up) | – | – | – | – | – | – | – | – | – | – | – | – | – | – | – | – | 2.7 IU/mg | 0.15 IU/mg
